Test results taken from US20080181886A1, “Polypeptides That Bind Baff And/Or April” (Genentech, Inc., priority 2004, published 2008).
Blank lines part the entries; values can stand above or below the binder they belong to.

Assays:
human BAFF (human) [1] = biological target: human BAFF (human) (UniProt Q9Y275); test: shotgun scan, phage display
human BAFF (human) [2] = biological target: human BAFF (human) (UniProt Q9Y275); test: NNS library, phage display
Murine APRIL (mouse) [3] = biological target: Murine APRIL (mouse) (UniProt Q9D777); test: NNS library, phage display
Murine APRIL (mouse) [4] = biological target: Murine APRIL (mouse) (UniProt Q9D777); test: shotgun scan, phage display

Sequence of Murine APRIL (mouse) (Q9D777 105-241 limits assumed): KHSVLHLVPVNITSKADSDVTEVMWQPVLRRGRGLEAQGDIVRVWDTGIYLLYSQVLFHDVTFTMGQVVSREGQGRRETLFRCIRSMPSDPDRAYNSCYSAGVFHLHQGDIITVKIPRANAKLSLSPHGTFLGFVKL
Sequence of human BAFF (human) (Q9Y275 82-285 limits assumed): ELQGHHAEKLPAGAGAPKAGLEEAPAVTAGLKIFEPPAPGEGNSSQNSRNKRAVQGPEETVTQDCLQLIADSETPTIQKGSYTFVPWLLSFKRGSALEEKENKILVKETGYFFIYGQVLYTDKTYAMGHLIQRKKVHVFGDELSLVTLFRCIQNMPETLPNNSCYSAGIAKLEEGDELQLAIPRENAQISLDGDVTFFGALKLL

Binder: SLSCRKEQGKFYDHLLRDCISCASICGPHPKQCAYFCENKLR (receptor) [TACI_d2 Q95P]
- F (BAFF) (human BAFF (human) [1]): > 54

Binder: SLSCRKEQGKFDDHLLRDCISCASICGQHPKQCAYFCENKLR (receptor) [TACI_d2 Y79D]
- F' BAFF (human BAFF (human) [2]): 0
- F' APRIL (Murine APRIL (mouse) [3]): 0
- F (BAFF) (human BAFF (human) [1]): > 9.5
- F (APRIL) (Murine APRIL (mouse) [4]): > 8.2

Binder: SLSCRKEQGKFYDHLLGDCISCASICGQHPKQCAYFCENKLR (receptor) [TACI_d2 R84G]
- F' BAFF (human BAFF (human) [2]): 0
- F (BAFF) (human BAFF (human) [1]): 13

Binder: SLSCRKEQGKFYDHLLPDCISCASICGQHPKQCAYFCENKLR (receptor) [TACI_d2 R84P]
- F' BAFF (human BAFF (human) [2]): 0
- F (BAFF) (human BAFF (human) [1]): > 52

Binder: SLSCRKEQGKFYDHLLRDCISCASICGQPPKQCAYFCENKLR (receptor) [TACI_d2 H96P]
- F (BAFF) (human BAFF (human) [1]): 20
- F (APRIL) (Murine APRIL (mouse) [4]): 48

Binder: SLSCRKEQGKFYDHLLRDCISCASICGQDPKQCAYFCENKLR (receptor) [TACI_d2 H96D]
- F (BAFF) (human BAFF (human) [1]): > 29

Results, then the binder that gave them:

- F' BAFF (human BAFF (human) [2]): 0
- F (BAFF) (human BAFF (human) [1]): > 36
Binder: SLSCRKEQGKFSDHLLRDCISCASICGQHPKQCAYFCENKLR (receptor) [TACI_d2 Y79S]

- F (BAFF) (human BAFF (human) [1]): 15
Binder: SLSCRKEQGKFYDHLPRDCISCASICGQHPKQCAYFCENKLR (receptor) [TACI_d2 L83P]
